The results in this text go back to the supplement of paper PMC10724198.

Data set [1] concerns Saccharomyces cerevisiae. The data set is described as follows: protein stability index of tFT-peptide fusion in wild type (PSI (0-1 scale)); higher = more stable (slower turnover). The following applies: genetic background: wild type. Here is the method: (§1)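 MPS profiling in S. cerevisiae of two library types built from selected 12-aa C-degron peptides (IN1, IN2, LN1, LN3, VN2, R1-R5, W1-W3, Atg1 and Rpa12 C-termini): saturation mutagenesis libraries and C-terminal +1 capping libraries (13 aa). Each peptide is fused to the C-terminus of a sfGFP-mCherry timer, after a GGGS linker. Cells are FACS-sorted into 8 mCherry/sfGFP bins and sequenced. PSI runs from 0 (unstable) to 1 (stable), measured once in wild type and in the das1Δ or doa10Δ background.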

In data set [2] the test system is Saccharomyces cerevisiae. The data set is described as follows: protein stability index of tFT-peptide fusion in deletion strain of DAS1 (PSI (0-1 scale)); higher = more stable (slower turnover). Here is the method:
as §1
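Wherever protein stability index of tFT-peptide fusion in deletion strain of DAS1 is given: PSI is a weighted mean of each variant's read distribution over the sorted stability bins, computed only for variants having over 10 reads in total.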
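Wherever protein stability index of tFT-peptide fusion in wild type is given: PSI derived as read-weighted mean over the 8 sorting bins, only variants exceeding 10 total reads kept, mCherry placed adjacent to the peptide and sfGFP distal.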

ARWRVLLWRGAS: the protein stability index was determined as 0.4 in data set [1] and 0.628 in data set [2].
In the same order, the values of ASLAASFWRVVG are 0.135 and 0.695.
With ASWRVGLWRGAS, the protein stability index is 0.516 in data set [1] and 0.703 in data set [2].
On to AVVYLSCVACIN, for which the protein stability index in data set [1] was 0.0207; in data set [2], 0.038.
As to CKSCGYKFRTNN, the protein stability index in data set [1] came to 0.276; in data set [2], 0.697.
For the sequence CTSCCYKFRTNN, the protein stability index was found to be 0.211 in data set [1] and 0.661 in data set [2].
Turning to CTSCEYKFRTNN, the protein stability index was 0.457 in data set [1] and 0.684 in data set [2].
Turning to CTSCGQKFRTNN, the results for the protein stability index in data set [1] and in data set [2] were 0.448 and 0.686, respectively.
CTSCGYEFRTNN: the protein stability index turned out to be 0.64 in data set [1] and 0.675 in data set [2].
As to CTSCGYHFRTNN, the protein stability index in data set [1] was found to be 0.258; in data set [2], 0.695.
On to CTSCGYKFITNN, for which the values for the protein stability index in data set [1] and in data set [2] were 0.325 and 0.709, respectively.
For CTSCGYKFRGNN, the values for the protein stability index in data set [1] and in data set [2] were 0.682 and 0.686, respectively.
In the same order, the values of CTSCGYKFRHNN are 0.555 and 0.705.
The matching figures for CTSCGYKFRKNN: 0.23 and 0.692.
For the sequence CTSCGYKFRTNNI, the protein stability index in data set [1] turned out to be 0.716; in data set [2], 0.699.
Turning to CTSCGYKFRTNNP, the protein stability index in data set [1] came out at 0.698; in data set [2], 0.69.
Regarding CTSCGYKFRTNNR, the protein stability index in data set [1] stood at 0.707; in data set [2], 0.705.
As to CTSCGYKFRTNNY, the protein stability index in data set [1] is 0.677; in data set [2], 0.704.
Take CTSCGYKFRTPN: the values for the protein stability index in data set [1] and in data set [2] were 0.689 and 0.71, respectively.
Turning to CTSCGYKFRTRN, the protein stability index stood at 0.534 in data set [1] and 0.683 in data set [2].
Take CTSCGYKFRVNN: the protein stability index in data set [1] came out at 0.282; in data set [2], 0.687.
With CTSCGYKFRWNN, the protein stability index in data set [1] was 0.49; in data set [2] it was 0.737.
Consider CTSCGYKFRYNN, for which the values for the protein stability index in data set [1] and in data set [2] were 0.369 and 0.702, respectively.
Regarding CTSCGYKFYTNN, the protein stability index in data set [1] came to 0.374; in data set [2], 0.701.
Regarding CTSCGYKHRTNN, the protein stability index worked out at 0.582 in data set [1] and 0.687 in data set [2].
In the same order, the values of CTSCGYKWRTNN are 0.153 and 0.659.
As for CTSCGYVFRTNN, the figures for the protein stability index in data set [1] and in data set [2] were 0.196 and 0.698, respectively.
In the same order, the values of CTSCNYKFRTNN are 0.407 and 0.681.
On to CTSCTYKFRTNN, for which the values for the protein stability index in data set [1] and in data set [2] were 0.238 and 0.648, respectively.
Regarding CTSVGYKFRTNN, the values for the protein stability index in data set [1] and in data set [2] were 0.176 and 0.682, respectively.
Take CTVCGYKFRTNN: the protein stability index turned out to be 0.28 in data set [1] and 0.704 in data set [2].
As for CVSCGYKFRTNN, the results for the protein stability index in data set [1] and in data set [2] were 0.243 and 0.705, respectively.
In the same order, the values of CWSCGYKFRTNN are 0.167 and 0.714.
On to DSLAASFWRVVG, for which the protein stability index in data set [1] was found to be 0.135; in data set [2], 0.697.
In the case of ELIQPLPVQFLN, the protein stability index in data set [1] was 0.0675; in data set [2], 0.612.
Regarding EVVYLSCVACIN, the protein stability index in data set [1] was determined as 0.0159; in data set [2], 0.0291.
For the sequence FCMRWTFRYWVN, the results for the protein stability index in data set [1] and in data set [2] were 0.0388 and 0.481, respectively.
As for FDKRNHLIKLLN, the protein stability index in data set [1] amounted to 0.131; in data set [2], 0.589.
In the case of FHMRWTFRYWVN, the protein stability index amounted to 0.0327 in data set [1] and 0.466 in data set [2].
The matching figures for FLIQPLPVQFLN: 0.0527 and 0.582.
Take FSIRWTFRYWVN: the protein stability index in data set [1] was found to be 0.0207; in data set [2], 0.335.
For FSMRDTFRYWVN, the protein stability index was 0.0684 in data set [1] and 0.833 in data set [2].
In the case of FSMRVTFRYWVN, the protein stability index in data set [1] is 0.0315; in data set [2] it was 0.352.
For the sequence FSMRWAFRYWVN, the protein stability index in data set [1] was found to be 0.115; in data set [2] it was 0.58.
For FSMRWLFRYWVN, the protein stability index is 0.0905 in data set [1] and 0.573 in data set [2].
In the same order, the values of FSMRWSFRYWVN are 0.0724 and 0.544.
Take FSMRWTDRYWVN: the protein stability index in data set [1] was found to be 0.0929; in data set [2] it was 0.568.
Consider FSMRWTFRFWVN, for which the protein stability index was 0.052 in data set [1] and 0.419 in data set [2].
In the case of FSMRWTFRIWVN, the protein stability index in data set [1] came out at 0.0523; in data set [2], 0.288.
In the same order, the values of FSMRWTFRSWVN are 0.272 and 0.515.
FSMRWTFRYHVN: the values for the protein stability index in data set [1] and in data set [2] were 0.035 and 0.472, respectively.
FSMRWTFRYNVN: the protein stability index in data set [1] turned out to be 0.214; in data set [2], 0.568.
In the case of FSMRWTFRYVVN, the protein stability index is 0.117 in data set [1] and 0.496 in data set [2].
As to FSMRWTFRYWDN, the protein stability index in data set [1] stood at 0.0861; in data set [2] it was 0.554.
For FSMRWTFRYWRN, the protein stability index came to 0.653 in data set [1] and 0.531 in data set [2].
In the case of FSMRWTFRYWVC, the protein stability index in data set [1] was 0.0396; in data set [2], 0.403.
Take FSMRWTFRYWVD: the values for the protein stability index in data set [1] and in data set [2] were 0.46 and 0.467, respectively.
In the case of FSMRWTFRYWVNN, the protein stability index in data set [1] stood at 0.137; in data set [2], 0.558.
With FSMRWTFRYWVNQ, the protein stability index in data set [1] was 0.141; in data set [2], 0.558.
Consider FSMRWTFRYWVQ, for which the protein stability index in data set [1] is 0.205; in data set [2], 0.48.
In the same order, the values of FSMRWTFRYWVY are 0.0725 and 0.374.
For the sequence FSMRWTFRYYVN, the figures for the protein stability index in data set [1] and in data set [2] were 0.0506 and 0.482, respectively.
The matching figures for FSMRWTHRYWVN: 0.0511 and 0.561.
The matching figures for FSMWWTFRYWVN: 0.077 and 0.444.
For FSNRWTFRYWVN, the protein stability index was 0.0838 in data set [1] and 0.617 in data set [2].
Turning to GKHKKGQKQKIN, the values for the protein stability index in data set [1] and in data set [2] were 0.133 and 0.585, respectively.
Take GLIQPLPVQFLN: the values for the protein stability index in data set [1] and in data set [2] were 0.0806 and 0.62, respectively.
